We go through one protein from PMC9293632, “PKGIα is activated by metal-dependent oxidation in vitro but not in intact cells” (The Journal of Biological Chemistry, 2022).

The data set deals with the molecule itself. Description: cross-linking; disulfide cross-link at Cys43 of freshly purified kinase; diluted in KPE buffer (10 mM potassium phosphate, 1 mM EDTA, pH 7.0) with 0, 5 or 15 mM DTT, 1 h on ice; maleimide in SDS sample buffer, nonreducing 9% SDS-PAGE without heating, anti-Flag Western blot.

B1: Flag-tagged WT PKGIα (type I cGMP-dependent protein kinase, alpha isoform) (enzyme, UniProt Q13976 1-671, looked up)
chain: MSELEEDFAKILMLKEERIKELEKRLSEKEEEIQELKRKLHKCQSVLPVPSTHIGPRTTRAQGISAEPQTYRSFHDLRQAFRKFTKSERSKDLIKEAILDNDFMKNLELSQIQEIVDCMYPVEYGKDSCIIKEGDVGSLVYVMEDGKVEVTKEGVKLCTMGPGKVFGELAILYNCTRTATVKTLVNVKLWAIDRQCFQTIMMRTGLIKHTEYMEFLKSVPTFQSLPEEILSKLADVLEETHYENGEYIIRQGARGDTFFIISKGTVNVTREDSPSEDPVFLRTLGKGDWFGEKALQGEDVRTANVIAAEAVTCLVIDRDSFKHLIGGLDDVSNKAYEDAEAKAKYEAEAAFFANLKLSDFNIIDTLGVGGFGRVELVQLKSEESKTFAMKILKKRHIVDTRQQEHIRSEKQIMQGAHSDFIVRLYRTFKDSKYLYMLMEACLGGELWTILRDRGSFEDSTTRFYTACVVEAFAYLHSKGIIYRDLKPENLILDHRGYAKLVDFGFAKKIGFGKKTWTFCGTPEYVAPEIILNKGHDISADYWSLGILMYELLTGSPPFSGPDPMKTYNIILRGIDMIEFPKKIAKNAANLIKKLCRDNPSERLGNLKNGVKDIQKHKWFEGFNWEGLRKGTLTPPIIPSVASPTDTSNFDSFPEDNDEPPPDDNSGWDIDF
notes: PKGIα, the alpha isoform of type I cGMP-dependent protein kinase; On oxidation the two chains of the homodimer are joined by a disulfide between their Cys43 residues; source: HEK293T, transiently transfected, purified (anti-Flag beads, eluted in PBS with Flag peptide)
For B1, the “stoichiometry N” value was found to be 2.
